Consider 23 sequences from a protein production outcome set (Wang et al. 2014).

The nature of the data set: label from the status in PepcDB records.
Take “MTPIPLINIPLCNLAGDGYILSEKSQSQNMLRGIVMSETVRVGLLGYGYASKTFHAPLIAGTAGMELVAVSSSNAEKVHADWANLRVEKDPQALFSDPDIDLIVIPTPNDTHFPLAKQALEAGKHVVVDKPFTVTLSQAYDLGAIAERAGKVLSVFHNRRWDSDFLTLKQLLSAGTLGNVVYMESHFDRFRPEVRQRWREDGSEGSGIWYDLGPHLLDQALELFGLPVAIQVDMAQLRPGSKATDYFHATLIYPQRRVILHASMLVAAASARYTVHGTRGSFVKYGLDPQEDRLKAGERPPLADWGQDKHDGVLTLSRDGITAEQTIATIPGNYPAYYAAVRDALLGKGENPVGVNQAIQVMELIELGLLSHEQKKAVALKNSLEHHHHHH”: the protein production result is “failed”.
As for “MTPLAEDFGAQGDAATRARWMALVEKTLKGQSFDDALTITTADGLTIQPLYTAEDGVAVARDLRARDTDRPWDLRMRAAHPDPIRAAKDVLTDLEGGAASVLLQIDPTGVNGVAIGSADDLGKALSGVLLDLAPVALDAGFLGPKAADWLGALAKAAPNAPLAFHLDPLTAFAQTGVSPGPIESHVFNAATVATRLSATYARASLFLATGRTAHEAGGSNVEELALMTAAALAYAKALVRSGLTIEEAFGRIALGVSLDGEYFTGVAKVRAAKALWARLTESCGVTVAPTIEARSSRRMLAKADAWTNLLRLTSAGFAGAVGGADAIVLDAFTDAIGLPTAFARRQARNTQLVLMEESHLGRVADPAGGAWYLDSLTDQLARAAWASFQAIEAAGGVIKALESGLVADAVAKSRTAQEAAYADKSRKILGVTVFPNADDKPPEVETPDSSAFAVQGPDVRLPGPDSHCPALTPVRFAAAFEGA”, the protein production entry is reported as “failed”.
In the case of “MTPLLTAYLQAWKQYFDFSGQTTRDDFWWFMLAHLLITLVVVSIEIATNNPGWLDLFYSLISFIPMLAILVRRLHDTQRSGWWAWLFVIPVIGPFWLIYLLVQPSSSHFTDKALLS” it was “failed”.
Turning to “MTPNAPSTFNNMLLIAVFECRKFLFNLRGMIALIAFALVWGMLLLYPIQGASTLLMQPNIKDLIDGLFGNNALNVLFDWPVAEMAIFWCFALYLFPMFSILIAADQFSSDKTRGTLRFYTIRTSKDSLLFGRFLGQILIQGLLILLTILATIALALSRDASLLLPAISSGALVGVNLLIVILPFTAVMTLLSLYASTARQAMVLATILWTVVSIALLILGNESRLFEGLQWLLPGAQLSNMINTNGLNSLAYAPIPLLQTAIALFLGRIYFQRSQL”, the protein production result is reported as “failed”.
In the case of “MTPNEIAAKLSGLATKYHIRDVTLLAGRLLMSFIFLHEGVTLATHFDGAARAMAALGVGLPLFVATIALQLGAGLSVASGLLTRLGGIGLGLFCLATALLFHTNFASQNELLHFEKDLAISGGMFVLAAVGAGRFSLDWLLAGYLQKRQRDKEMARALLAVENQFSVDVQLPV” it was “failed”; in that of “MTPNNIVSRTEMDNGIQGFYKDKVVFLTGATGFLGKVIIEKLLRTTEVKRIYAMMRPKRGKDIQERLAIWQKDPLFEVLLKAKPDALKRIFVIAGDCLDPDLGINRSDRKLLVSEVHIVIHGAATVRFNEPLHVALAINTRGTRLMLQLAKEMLQLEAYLHISTAFSNCVIFRIEEKFYPEHLTCDANSVLAMSELLSEQMMDKLAPTLVGNFPNTYTYTKALAEDVVLREFGDLPLSIFRPSVIIATHEEPVSGWIDNLYGPIAHIYGVSHGVLRLTTYDKDGYASLVPVDYCANAALASIWQTSKDKSQRNAISQPAIYTLAPSEKNLLLNTDFIKHSLIHRNDFPLTKMIWYPFVHNISNPRIFPLAAFFYHTLPGYFYDLALRLSGRKPRLVKLYRSIHANIAVLEHFMNNSWHFETKSTDRLRVMMSPEDRRLYNFDMETLDWKEYFRKALFGMRLYLTKEPPTQESLEQGRRLFYRWLLIVDACQVIYLI”, “failed”; in that of “MTPSAITLCFLIFAILMFALEKLPLAVTAMIVTVGLAVTGVLPAKEAFLGFVDTNVILFVAMFVIGGALFETGMANKIGGVVSRFAKSERQLMVVLMLITGLMSGILSNTGTSAILIPVILGIAMKSDFARSRLLMPMAFASTLGGNLSLIGSPNNLVVQGVLSQTGLKFGFFEYAKIGLPLLIVGILYFVFIGYRFLPQTLNTHVKKQDYHAFHHHHNIIPKWKQWLSLCVLIATLFAMVFEEVIGIKLYISACIGALILVIMRVITEKQAYQAIDSQVVFLFAGTLALADALKRTGAGADIAHSILSLLGDHPSTTALLLTILLLSCLLTNFMSNTATAALLAPIGLSIANSLNADPRAVLMAVVIGSSCAFATPIATPANTMILSVGQYKFTDYTKAGIPLIIISVLLSMLLLPIFFPLFL”, “failed”.
The result for “MTPVQLKNYLEQLVGNQIKTSTMIWGPPGIGKSSIVAQIAEEGKLRFIDLRLSQLAPTDLRGLPVAIPTSKTKPQTGTSAWYPPEFLPKDGAGILFLDELNMAPPAMQGVAQQLILDRRVGSYEVPTDWFIWAAGNRKEDRASVFEMPAPLANRFLHLDVQPDFESFKQYALEQKYHEQVIAFLSFRPGLIHKLDLQRPAWPSPRSWAIANGLHQVNLDVSPAVGEGCAAEFSAFVQLYKDLPDLEAIFRGQGQNIGFPTEPSSGYASTIGLAVRAKDATAGVNAFHWLTDKADSEWVQLFVTDMAGQLRRAGHLGALSIMAKKEPKLKQFMQGYQELLAILEHHHHHH” reads “not failed”; that for “MTQMRFTEEDFNTFTIEGLDARMEVLKETVRPKLTALGEHFAPTLSALTGDEMFPHVAKHARRSVNPPADSWVAFANSKRGYKKLPHFQIGLWESHVFVWFAIIYESPIKEEYGKLLEVNQETITKNIPDSFVWSADHTKPGVHKQSEMDKEQLKTLFERLQTVKKAELLCGIQLQKEEVLNMNNQEFLQRIDDAFKQLAFLYRLTQKVTQALEHHHHHH”, “not failed”; that for “MTQPELTPAQRTEVELLARGRADKSRVLRDLKLPETPEAAHALLLRLGVWDEARTPYADRLRAALNAVELPVPDFDPAEERLDLTHLPTFAIDDEGNQDPDDAVGVEDLGGGLTRLWVHVADVAALVAPDSPLDLEARARGATLYLPDRTIGMLPDELVAKAGLGLHEVSPALSICLDLDPDGNAEAVDVLLTRVKVQRLAYQEAQARLEAGEEPFVTLARLARASRRLREGEGALSIDLPEVRVKADETGASVFPLPKPEMRTVVQECMTLAGWGTAIFADDNEIPLPFATQDYPTREVAGDTLPAMWARRKTLARTRFQPSPGPHHGMGLDLYAQATSPMRRYLDLVVHQQLRAFLAGRDPLSSKVMAAHIAESQMNADATRQAERLSRRHHTLRFIAAQPERVWDAVVVDRRGAQATLLIPDLAFDVQVNTPAAPGTALQVQFADIDLPQMRVRARSVLEHHHHHH”, “not failed”.
Consider “MTQPHQIILLAHGSSDARWCETFEKLAEPTVESIENAAIAYMELAEPSLDTIVNRAKGQGVEQFTVVPLFLAAGRHLRKDVPAMIERLEAEHGVTIRLAEPIGKNPRLGLAIRDVVKEELERSEH”, for which the protein production result is “not failed”.
Take “MTQSAPEFKVLQSIAFLAVVLQSSLLYTMNQGNVLLEQSLIMGMLFNLAKFSAPAFIFIVGFHLIRHYTKQLVYKEYISEKATHLLIPYFFWSILYLLTTNDLITLQGGIKSLLLGTAAPHLWYVIMMFQIHLLFPLLCTLFYWFQKRTENKKDIYKYMTFFACLYFLLMWFSSHYIFNGEKLTSSTILHYTDRSFLFYSFYFVMGGIAAVPLKTWRLFVMKHIPLITILFFILFLFINYELFSFYGANSIHLTVSTYLKPSMFLYIVCEIIILYVLSIMIVQRRGFLYKTLRFIGNYTYGAYLAHLFFLQLCTKFLSLFTLQENTILYSLLLFVLTAIISISTMVICSTIPFHTWITGPSPTTKMKWTKVVFRKNHKKLFKPYI”: the protein production result is listed as “failed”.
The result for “MTQTTPQPDPSRLRDELVRLHGKASPEWDSLVRLDPRFVDAYLKFAGVPQRRNHLDDKTRAFIALAADACATQLYAPGVARHIERALSFGATREELIEVLELVSTIGIHTSNVGVPVLLEVLEEEGLRKGAPPLDERRQKLKAEFETNRGYWHPTWEGLLELDPDLFEAYVEFSSVPWRTGVLSPKIKEFMYCAFDASATHLYVPGLKLHIRNALRYGATAEELMELLEIVSVTGIHGAELGAPLLEAALKRSGAAAGEPHA” reads “not failed”; that for “MTQVRETVSFKAGDVILYPGVPGPRDRAYRVLEGLVRLEAVDEEGNALTLRLVRPGGFFGEEALFGQERIYFAEAATDVRLEPLPENPDPELLKDLAQHLSQGLAEAYRRIERLATQRLKNRMAAALLELSETPLAHEEEGKVVLKATHDELAAAVGSVRETVTKVIGELAREGYIRSGYGKIQLLDLKGLKELAESRGQGR”, “not failed”.
In the case of “MTQVSIIVPVLNEESTIHSAVSRLCRDFPDCELIVVDGGSTDATAELAALHATVIGSERGRAKQMNEGARHASGGILWFIHADTAIEPEALGQIRSVLADPAVVAGGLTLRFDRRTPALNYLAWTSNARARRLHHIFGDQAMFIRRTAFDELGGFPDLAIMEDLEMSRRLHRRGPLRLLPATSTASSRRLTAHGTWRMIAFMQYLKLLYFAGADPEAIRARYTAGPRLFPKRNPATLEHHHHHH” it was “failed”; in that of “MTQYTHIRNATGKLTIKNTTFLIDPFLAPKDTYPGFEGTFNYQQRMPMVDLPLSMDDLLSNVTAVVVTHTHLDHWDDTAINSIPKSLPIFVQNTADKELITSQGFIDVRIIFESLEFNGITLRKTGGSHGTVEMYANPVLAPLAGDAMGVIFEAADEPTVYLVGDTVWTSDVEKALLRFDPNVIIMNTGYAQILGFEDSIIMGTKDIGRMVVRKPEAKIIAVHMDTVNHTATSRKDVRKFIKGNNIESHVAVPEDGETITL”, “not failed”.
The result for “MTRAINDPGNEDPGSLLETDADALLGGAAAQAPEERCRLAAQACIRACERYLALCTESSREQRQHAGDCADLCRLAALLLERRSPWAPAACELAARYALACAERCDGDEPLERECAGACRRFVEACRPLLPALEHHHHHH” reads “not failed”; that for “MTRAKAPMEGVKLNSLLKVEDFATQSQFLGVNPIWNNNSTQLVEPPSIVNDEEEETEPLLPVEFTLVERNLEDGLVEEIIFSSGGEIDVYDLQGLCDKVGWPRRPLVKLAAALKNSYMVATLHSVMKSSSDSDSSEGGDGEKQQEKKLIGMARATSDHAFNATIWDVLVDPEYQGQGLGKALVEKLVRALLQRDIGNISLFADSQVVDFYQNLGFEADPEGIKGMFWYPK”, “failed”.
For “MTREIIPILPEAPVETARSGNALPLLREIAEHLHHLLETGEASTIDLSALPLTPGDLEWLRAELGGGEVSVTLHADGASTLDETAFPGVWWIIHRNAQGAVTTQFIEVAFVPELVKSPRADVAAARAALVLRMADL”, the protein production result is recorded as “not failed”.
“MTRKSFPFFLLGLILTVGIDQAVKYWVMHNIPLGTETPLLPFLSLYHVRNSGIAFSFFSSFSHWGLIFLTLIILIFLLWLWKNTQYNKSLTRFGFTLIIGGAIGNLIDRICFYYVIDYILFYINDVFYFAVFNLADTFITLGVIAIIIEELLSWIKRKSTFSE”: the protein production result is “failed”.
For the sequence “MTRLFSRPYPLGATLNKEGCNFSIHAPGVKDIQLALFASDGSYSLHDLPNEYAGIRHTFIPDIKPGQKYGYVVTRRDEPLLISDPYAKSLDKALHYHPPYTPAKSFDMPKCVVIE”, the protein production entry is listed as “failed”.
Consider “MTRPAHPISRYPVPELAALPDDIRQRILEVQDKAGFVPNVFLTLAHRPDEFRAFFAYHDALMLKDGGLTKGEREMIVVATSAANQCLYCVVAHGAILRIYEKKPLVADQVAVNYLKADIPPRQRAMLDFALKVCKASHEVNEADFEALREHGFTDEDAWDIAAITAFFGLSNRMANTIGMRPNDEFFLMGRVPKSK”, for which the protein production entry is recorded as “not failed”.
In the case of “MTRRAAEEILPSSLFRDPDTERVTARTGAYLKIGVIAPALMVADVWLAQQLFPGFDAGAQFISELGGPEAPMPEIFNYGMVIAGIAGLFAGAGFAHALEHAGGRRVVSAFAGLFVALTGLGAIFAGIFHWPDPMHRACGVGLGIQFAPLFAAWALWGKPDYRRLAQFSLGWFFGLLLVFALLTGVWNVRTGYDVGYWQRGHAFLGLLWLAIAAWTLERGWRAAVMSEIETASA” it was “failed”.
